Tests used:
[1] = target: HLA I molecule A*02:01, purified; experiment: radioligand binding
[2] = test system: CD8 T cells of peptide‐expanded PBMCs from A*02:01‐donors; experiment: DimerX staining; assay type: cell-based, human; conditions: Figure 5A; peptide‐stimulated PBMCs from A*02:01‐subject #14; representative experiment

| Substance | IC50 [1] | percentage of CD8 T cells recognizing DimerX‐peptides within the total of gated‐CD8 T cells [2] |
| --- | --- | --- |
| HRVC_(1791-1806) peptide | 91 nM | – |
| NTSAGFPYV [HRVC1798‐1806] | – | 1.12% |

Source: PMC7753581 (The FASEB Journal, 2020)
